Reference: PMC7519114

Columns and labels:
[1] = molecular target: ACKR3 of primary mouse astrocytes (mouse (endogenous in primary astrocytes)) (UniProt P56485)
[2] = molecular target: ACKR3 of primary mouse astrocytes (mouse (endogenous in primary astrocytes)) (UniProt P56485); remark: listed apart in the source

UniProt P56485, sequence (P56485 whole entry): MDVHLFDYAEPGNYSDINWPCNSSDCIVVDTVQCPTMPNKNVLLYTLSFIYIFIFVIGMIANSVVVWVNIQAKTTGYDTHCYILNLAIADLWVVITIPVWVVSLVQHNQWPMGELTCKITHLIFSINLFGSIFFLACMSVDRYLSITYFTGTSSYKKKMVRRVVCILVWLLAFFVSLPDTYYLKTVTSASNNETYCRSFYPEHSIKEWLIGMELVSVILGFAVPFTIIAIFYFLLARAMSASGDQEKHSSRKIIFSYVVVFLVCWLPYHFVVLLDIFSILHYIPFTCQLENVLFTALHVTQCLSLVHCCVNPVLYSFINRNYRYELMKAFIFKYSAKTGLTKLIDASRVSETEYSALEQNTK

Human/Feline/Rhesus Macaque CXCL12 (from UniProt P48061 22-93) (ligand)
junctional current (Ij) magnitude in astrocyte cell pairs (double patch-clamp), after bath-application of CXCL12 [1]: 56.5%
inhibition of forskolin-induced cAMP production in astrocytes, CXCL12 (10 nM) [2]: 40.8 % inhibition
inhibition of forskolin-induced cAMP production in astrocytes, CXCL12 after pre-treatment with the CXCR4 antagonist AMD3100 (1 μM, 30 min) [2]: 44.9%

B1: Recombinant mouse CXCL11 (ligand)
chain: FLMFKQGRCLCIGPGMKAVKMAEIEKASVIYPSNGCDKVEVIVTMKAHKRQRCLDPRSKQARLIMQAIEKKNFLRRQNM
junctional current (Ij) magnitude in astrocyte cell pairs (double patch-clamp), after bath-application of CXCL11 [1]: 52%
